Laboratory results reported in publication PMC3900414.

Target: T1, hPus1 (79-408) (Homo sapiens, UniProt Q9Y606 79-408)
T1 sequence: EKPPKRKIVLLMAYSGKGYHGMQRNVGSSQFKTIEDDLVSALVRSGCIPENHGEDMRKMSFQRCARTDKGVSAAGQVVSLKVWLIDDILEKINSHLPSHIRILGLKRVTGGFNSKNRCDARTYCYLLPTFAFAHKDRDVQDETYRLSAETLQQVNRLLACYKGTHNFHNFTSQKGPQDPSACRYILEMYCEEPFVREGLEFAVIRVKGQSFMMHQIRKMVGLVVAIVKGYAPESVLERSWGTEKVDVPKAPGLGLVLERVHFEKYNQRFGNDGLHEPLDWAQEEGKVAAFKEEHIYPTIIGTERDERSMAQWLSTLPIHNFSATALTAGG
Experiment: size exclusion chromatography

GAUGGACUUGAAAUCCAUUGGCGCAGGUUCGAAUCCUGC (structured_RNA) [minimal tRNASer (nt 26-65), unlabeled]
binding result: binds
